{"source": "the nanobody polyreactivity screen of Harvey et al. (2022)", "assay": "yeast display, Sf9 membrane polyspecificity reagent, FACS + sequencing; frameworks hold sequencing errors", "in_short": "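In a synthetic yeast display library (Saccharomyces cerevisiae BJ5465), nanobody expression was induced with galactose for 36–48 hours. FACS gates were set low and high (top ~1%) using anti-HA fluorescence for expression and streptavidin fluorescence for binding of the Sf9 membrane reagent. Each polyreactivity label is drawn from the gate of origin.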", "data": [{"sequence": "QVQLVESGGGLVQAGGSLRLSCAASLIFANYAMGWYRQAPGKERELVAAISSVGRTYYADSVKGRFTISRDNAKNTVYLQMNSLKPEDTAVYYCAAESWFKYDYWGQGTQVTVSS", "values": [{"measurement": "polyreactivity (PSR sort gate)", "value": "low polyreactivity"}]}, {"sequence": "QVQLVESGGGLVQAGGSLRLSCAASGRIFYYNGMGWYRQAPGKERELVASIPRTSGRTFYADSVKGRFTISRDKAKNTVYLQMNSLKPEDTAVYYCAAVGSRYVLGEYGYWGQGTQVTVSS", "values": [{"measurement": "polyreactivity (PSR sort gate)", "value": "high polyreactivity"}]}, {"sequence": "QVQLVESGGGLVQAGGSLRLSCAASGSTFSVYAMGWYRQAPGKERELVAAISTSGGSTYYADSVKGRFTISRDNAKNTVYLQMNSLKTEDTAVYYCNAEYSGYIYPYSYPIYYWYDYWGQGTQVTVSS", "values": [{"measurement": "polyreactivity (PSR sort gate)", "value": "high polyreactivity"}]}, {"sequence": "QVQLVESGGGLVQAGGSHRLSCAASGFIFRWYAMGWYRQAPGKERELVAAISRSGDSTYYADSVKGRFTISRDNAKNTVYLQMNSLKPDDTAVYYCAADDRYYTYGYDYWGQGTQVTVSS", "values": [{"measurement": "polyreactivity (PSR sort gate)", "value": "low polyreactivity"}]}, {"sequence": "QVQLVESGGGLVQAGGSLRLSCAASGRTFRWYAMGWYRQAPGKERELVAAITGGGRTYYADSVKGSFTISRDYAKNTVYLQMNSLKPEDTAVYYCNKYPSSGNYINAYDYWGQGTQVTVSS", "values": [{"measurement": "polyreactivity (PSR sort gate)", "value": "high polyreactivity"}]}, {"sequence": "QVQIEDSGGGLVQAGGSLRLICAASGFTFINNDMGWYRQAPGKERELVAAISDSDGTTYYADSVKGRFTISRDNAKNTVYLQMNSLKPEDTEVYYCAADVVPTWEDEYWGQGTQVTVSS", "values": [{"measurement": "polyreactivity (PSR sort gate)", "value": "low polyreactivity"}]}, {"sequence": "QVQLVESGGGLVQPGGSLRLTCAASGGIFVTYTMGWYRQAPGKDRELVAGINSRSGSTYADSVKGGFTISRDNAKNTVYLQRTSLKLEDTAVYYCAADRIDLGRASRYGYWGQGTQVTVSS", "values": [{"measurement": "polyreactivity (PSR sort gate)", "value": "low polyreactivity"}]}, {"sequence": "QVQLVESGGGLVQAGGSLRLSCAASGRIFKYNAMGWYRQAPGKERELVAAISGRGVSTYYADSVKGRFTISRDNAKNPVYLQMNSLKPEDTAVYYCAAETVHGSADFDDWGQGTQVTVSS", "values": [{"measurement": "polyreactivity (PSR sort gate)", "value": "low polyreactivity"}]}, {"sequence": "QVQLVESGGGLVQAGGSLRLSCAASGRTFFRYVMGWYRQAPGKERELVAAISRSGGSTYYADSVKGRFTISRDNAKITVYLQMNSLKPEDTAVYYCNTVARSTVVPTEFDYWGQGTQVTVSS", "values": [{"measurement": "polyreactivity (PSR sort gate)", "value": "high polyreactivity"}]}, {"sequence": "QVQLVESGGGLVQAGGRLRLSCAASGRTFRWYAMGRYRQAPGKERELVADISSVGSTDYADSVKGRFTISRDNAKNTVYLQMNSLKPEDTAVYFCAADFSPRRYHNLSFGYWGQGTQVTVSS", "values": [{"measurement": "polyreactivity (PSR sort gate)", "value": "low polyreactivity"}]}, {"sequence": "QVQLVESGGGLVQAGGSLRLSCAASGSIFGWNAMGWYRQAPGKERELVAAISSGGSTYYADSVKGRFTISRDNAKNTVYLQMNSMKPEDPAVYYCNAYFQYYDYWGQGTQVTVSS", "values": [{"measurement": "polyreactivity (PSR sort gate)", "value": "low polyreactivity"}]}, {"sequence": "QVQLVESGGGLVQAGGSLRLSCAASGRTFGTYAMGWSRQAPGKERELVAAITWRTGNTYYADSVKGRFTISRDNAKNTVYLQMNSLKPEDTAVYYCAKTSSGRKFYWGQGTQVTVSS", "values": [{"measurement": "polyreactivity (PSR sort gate)", "value": "high polyreactivity"}]}, {"sequence": "QVQLVESGGGLVQAGGSLRLSCAASGLIFRAYGMGWYIQAPGKERELLAAITWNGGSTNYADSVKGRFTISRDNAKNTVYLQMNSLKPEDTAVYYCAARLAGRGSSSSRVVRTGGYWGQGTQVTVSS", "values": [{"measurement": "polyreactivity (PSR sort gate)", "value": "high polyreactivity"}]}, {"sequence": "QVQLVESGGGLVQAGGSLRLSCAASGRTFNRNAMGWYRQAPGKERELVAAISWGGSRTYYADSVKGRFTISRDTAKNTVYLQMNSLKPEDTAVYYCAVDGFRGRSHGANDYWGQGTQVTVSS", "values": [{"measurement": "polyreactivity (PSR sort gate)", "value": "high polyreactivity"}]}, {"sequence": "QVQLVESGGGLVQAGGSLRLSCAASGSIFPAYAMGWYRQAPGKERELVAAITDRCGSTYYADSVKGRFTISRDNANNTVSLQMNSLKPEDTYWGQGTQVTVSS", "values": [{"measurement": "polyreactivity (PSR sort gate)", "value": "low polyreactivity"}]}, {"sequence": "QVQIVESGGGLVKAGGSLRLSCAASGSTFERYAMGWYRQAPGKERELVAAINWSGGGTYYADSVKGRFTISRDNAKNTVYLQMNSLKPEDTAVYYCAADSGTVVFSLWWYEYYYWGQGTQVTVSS", "values": [{"measurement": "polyreactivity (PSR sort gate)", "value": "low polyreactivity"}]}, {"sequence": "QVQLVESGGGLVQAGGSLRLSCAASGFTFKSYAMGWYRQAPGKERELVAAISRGTSTKYADSVKGRFTISRDNAKNTVYLQMNSLKPEDTAVYYCAALFPTSDLRLRYYRYDYWGQGTQVTVSS", "values": [{"measurement": "polyreactivity (PSR sort gate)", "value": "low polyreactivity"}]}, {"sequence": "QVQLEESGGGLVQAGGSLLLICADSGSILGGNAMGWYRHAPGKERQMVDAITFSGGGTYYADSVKGRFTLSRDNAKNTVYLQMNSLKPEDTAVYYCAADKDGYTYEFDYWGQGTQVTVSS", "values": [{"measurement": "polyreactivity (PSR sort gate)", "value": "low polyreactivity"}]}, {"sequence": "QVQLVESGGGLVQAGGSLRLSCAASGRIFAFYAMGWYRQAPGKERELVAAISWSGGSTYYADSVKGRFTISRDNAKNTVYLQMNSLKPEDTAVYYCAAYRTRGSAYPYDYWGQGTQVTVSS", "values": [{"measurement": "polyreactivity (PSR sort gate)", "value": "high polyreactivity"}]}, {"sequence": "QVQLVESGGGLVQAGGSLRLSCAASGSTFPYVMGWSRQAPGKERELVAAISQRTGSTYYADSVKGRFTSSRDNAKNTVYLQMNSLKPEDTAVYYCAKPGYLRPSRYDYWGQGTQVTVSS", "values": [{"measurement": "polyreactivity (PSR sort gate)", "value": "high polyreactivity"}]}, {"sequence": "QVQLVESGGGLVQAGGSLRLSCAASGITFSQYAMGWYRPAPGKERELVAAISWSGVRTYYADSVKGRFTISRDNSKNTVYLQMNSLKPEDTAVYYCAAVPVYYGYDYWGQGTQVTVSS", "values": [{"measurement": "polyreactivity (PSR sort gate)", "value": "high polyreactivity"}]}, {"sequence": "QVQLVESGGGLVQEGGSLRLSCAASGIIFLENAMGWYRQAPGKERELVAGISSGGNTNYADSVKARFTISRDNAKNTVYLHMNSLKPEDTAVYYCNARCHRAVPGDELGYWGQGTQLTVSS", "values": [{"measurement": "polyreactivity (PSR sort gate)", "value": "low polyreactivity"}]}, {"sequence": "QVQLVESCGGLVQAGGSLRLSCAASGSTFGYYTMGWYRQAPGKEREFVAAITRSTGSTFYADSVKGRFTISRDNAKNTVYLQMNRLKPEDTAVYDCAATQPWYNTRTRYGSWGQGTQVTVSS", "values": [{"measurement": "polyreactivity (PSR sort gate)", "value": "low polyreactivity"}]}, {"sequence": "QVQLVESGGGLVQAGGSLRLSCASSGFTFSLYARGWYSQAPGKEMELVAAISQRGGSTYYADSVKGRFTISRDNAKNTDYLQMNSLKPEDTAVYYCNDYAQVSYGTYDYWGQGTQVTVSS", "values": [{"measurement": "polyreactivity (PSR sort gate)", "value": "high polyreactivity"}]}, {"sequence": "QVQLVESGGGLVQAGGSLRLSCAASGIIFIGYTMGWYRQAPGKERELVAAISRIGGSTYYADSVKGRFTISRDNAKNTVYLQMNSLKPEDTAVYYCAAQYYGSSYRRGYYWGQGTQVTVSS", "values": [{"measurement": "polyreactivity (PSR sort gate)", "value": "high polyreactivity"}]}, {"sequence": "QVQLVESGGGLVQAGGSLRLSCAASGITFGVYGMGWYRQAPGKERELVAAISRTGGSTYYADSVKGRFTISRDNAKNTVYLQMNSLKPEDTAVYYCAADRYRRVAKHGYWGQGTQVTVSS", "values": [{"measurement": "polyreactivity (PSR sort gate)", "value": "high polyreactivity"}]}, {"sequence": "QVQLVESGGGLVQAGGSLRLSCAASGRTFLYNVMGWYRQAPGKERELVAAITSGGRTYYADSVKGRFTISRDNAKNTVYLQMNSLKPEVTAVYYCAADPYFYYYGYDYWGQGTQVTVSS", "values": [{"measurement": "polyreactivity (PSR sort gate)", "value": "low polyreactivity"}]}, {"sequence": "QDQLVESGGGLVQAGGSLRLICAASGSTFVQYVMGWYRPAPGKERELVAAITRSCGSTYYADSVKGRFTISRDNAKNTVYLQMNSMKPEDSAVYYCAAYALRIQYDYWGQGTQVTVSS", "values": [{"measurement": "polyreactivity (PSR sort gate)", "value": "high polyreactivity"}]}, {"sequence": "QVQLVESGGGIVQAGGSLRLSCAASGFTFIYYAMGWYRQAPGKERELVAGISSGGRTSYADSVKGRFTISRDNAKNTVYFQMNSLKPEDTAVYYCATPVSRFRRTEYGYYYWGQGTQVSVSS", "values": [{"measurement": "polyreactivity (PSR sort gate)", "value": "high polyreactivity"}]}, {"sequence": "QVQLVESGGGLVQAGGSLRLSCAASGRIFFANAMGWYRQAPGKERELVAAITSDGSTDYADSVKGRFTISRDNAKNTVYLQMNSLKPEDTAVYYCNADAYYRYGITMDYWGQGTQVTVSS", "values": [{"measurement": "polyreactivity (PSR sort gate)", "value": "low polyreactivity"}]}, {"sequence": "QVQLVESGGGLVQAGGSLRLSCAASGRIYLYAMGWYRQTPGKERELVAAISYSGGSTYYADSVKGRFTISRDYAKNTVYLQMNCLKPEDTAVYYWASEAGSYWGKGTQVTVSS", "values": [{"measurement": "polyreactivity (PSR sort gate)", "value": "high polyreactivity"}]}, {"sequence": "QVQLVESGGGLVQAGGSLRLSCAASGLTFYYYAMGWYRPAPGKERELVARISSGTSTYYADSVKGRFTISRDNAKNTVYLQMNSLKPEDTAVYYCNARRKLGSTHGPWGGLEYWGQGTQVTVSS", "values": [{"measurement": "polyreactivity (PSR sort gate)", "value": "low polyreactivity"}]}]}
